{"source": "patent US20210292393A1", "about": "(published 2021)", "data": [{"molecular_target": "SARS-CoV spike protein (SARS-CoV, UniProt P59594 14-1190)", "units": {"median fluorescence intensity, fold over isotype control": "fold over isotype"}, "values": [{"binder": "antibody 351 (antibody, V domains shown) VH: HVQLVESGGGVVQPGRSLRLSCAASGFISRNYGMEWVRQAPGQGLEWVAGIWYDGSKKYYADSVKGRFTISRDTSKNTLFLQMDSLRAEDTAVFYCATATKTFCGGDCPPGGMDVWGQGTTVTVST VL: SYVLTQPPSVSVAPGKTAWITCVGNNIESESVHWYQQRPGQAPVLVIYYDSDRPSGIPERFFGSNSGNTATLTISRVEAGDEADYYCQVWDSNSDLMVFGGGTKLTVL", "median fluorescence intensity, fold over isotype control": 1.08}, {"binder": "antibody 363 (antibody, V domains shown) VH: EVQLLESGGGLVQPGGSLRLSCAASGFTFSTYAMSWVRQAPGKGLEWVSAISGSGGSTYYADSVKGRFTISRDNSKNTLYLQMNSLRAEDTAVYYCASGYSPDYWGQGTLVTVSS VL: not shown", "median fluorescence intensity, fold over isotype control": 1.09}, {"binder": "antibody 367 (antibody, V domains shown) VH: QVQLVQSGAEVKKPGASVKVSCKASGYTFTGYYIHWVRQAPGQGLEWMGWINPNSGGTIYAQKFQGRVTMTRDTSISTAYMELSRLTSDDTAVYSCAREPYYDILTGYYAPRRYFDYWGQGTLVTVSS VL: QSALTQPASVSGSPGQSITISCTGTSSDVGSYNYVSWYLQHPGKAPKLMIYDVSNRPSGVSNRFSGSKSGNTASLTISGLQAEDEADFYCSSYTSRSTYVFGTGTKVTVL", "median fluorescence intensity, fold over isotype control": 1.08}, {"binder": "antibody 366 (antibody, V domains shown) VH: QVQLVESGGGVVQPGRSLRLSCAASGFTFSSYAMHWVRQAPGKGLEWVAVISYDGSNKYYADSVKGRFTISRDNSKNTLYLQMNSLRAEDTAVYYCARGLVGYNWFDPWGQGTLVTVSS VL: DIQMTQSPSSVSASVGDRVTITCRASQGISSWLAWYQQKPGKAPKLLIYAASSLQSGVPSRFSGSGSGTDFTLTISSLQPEDFATYYCQQANSFTFGPGTKVDIK", "median fluorescence intensity, fold over isotype control": 1.23}, {"binder": "antibody 340 (antibody, V domains shown) VH: QVQLVQSGAEVKKPGASVKVSCKASGYTFTSYDINWVRQATGQGLEWMGWMNPNSGNTGYAQKFQGRVTMTRNTSISTAYMELSSLRSEDTAVYYCARGRYCTGGVCWGDWYFDLWGRGTLVTVSS VL: QSVLTQPPSVSGAPGQRVTISCTGSSSNIGAGYDVHWYQQLPGTAPKFLIYGNSNRPSGVPDRFSGSKSGTSASLAITGLQAEDEADYYCQSYDSSLSGPVFGGGTKLTVL", "median fluorescence intensity, fold over isotype control": 1.26}, {"binder": "antibody 332 (antibody, V domains shown) VH: QVTLRESGPALVKPTQTLTLTCTFSGFSLSTSGMCVSWIRQPPGKALEWLALIDWDDDKYYSTSLKTRLTISKDTSKNQVVLTMTNMDPVDTATYYCARIHDDILTGYHYVDYWGQGTLVTVSS VL: not shown", "median fluorescence intensity, fold over isotype control": 0.99}, {"binder": "antibody 331 (antibody, V domains shown) V domain 1: QITLKESGPTLVKPTETLTLTCSFSGFSLTKTGEAAGWIRQAPGRALEWVTVIFWDDDKRYSPSLQNRISVTKDTSKNQVVLRMTNVARFDTGTYFCWAMGGPGKEYFGQGTLVAVSS V domain 2: QSVLTQPPSVSGAPGQRVTISCTGTSSSIGPYSDVHWYQHVSGKAPRLLIFGNSNRPSGVPDRFSGSKSGTSASLVIAGLQAEDEADYYCQSYDSSLGEIYVFGTGTTVTVL", "median fluorescence intensity, fold over isotype control": 1.34}, {"binder": "antibody 368 (antibody, V domains shown) V domain 1: QITLKESGPTLVKPTETLTLTCAFSGFSLTKTGEAAGWIRQAPGRALEWVTVIFWDDDKRYSPSLQNRLTVTKDTSKNVVVLTMTNVDPVDTATYFCWAMGGPGKEFFGQGTRVAVSS V domain 2: QSVLTQPPSVSGAPGQRVTVSCTGTSSSIGPYSDVHWYQHIPGKAPRLLIFGTSNRPSGVPARFSGSKSGSSASLVIAGLQAEDEADYYCQSYDSSLGEIYVFGTGTTVTVL", "median fluorescence intensity, fold over isotype control": 1.09}, {"binder": "antibody 339 (antibody, V domains shown) V domain 1: QITLKESGPTLVKPTETLTLTCSFSGFSLTRTGEAAGWIRQAPGRALEWVTVIFWDDDKRYSPSLQSRLTVTKDTSKNQVVLTMTNVARFDTATYFCWAMGGPGKEYFGQGTQVAVSS V domain 2: QSVLTQPPSVSGAPGQRVTISCTGTSSSIGPYSDVHWYQHVSGKAPRLLIFGNSNRPSGVPDRFSGSKSGTSASLVIAGLQAEDEADYYCQSYDSSLGEIYVFGTGTTVTVL", "median fluorescence intensity, fold over isotype control": 1.27}, {"binder": "antibody 345 (antibody, V domains shown) VH: QVQLQESGPGLVKPSQTLSLTCTVSGGSISSGDYYWSWIRQPPGKGLEWIGYIYYSGSTYYNPSLKSRVTISVDTSKNQFSLKLSSVTAADTAVYYCARVGMVDNWNFEGNWFDPWGQGTLVTVSS VL: QSALTQPRSVSGSPGQSVTISCTGTSSDVGGYNYVSWYQQHPGKAPKLMIYDVSKRPSGVPDRFSGSKSGNTASLTISGLQAEDEADYYCCSYAGSVVFGGGTKLTVL", "median fluorescence intensity, fold over isotype control": 1.09}, {"binder": "antibody 342 (antibody, V domains shown) VH: EVQLVQSGAEVKKPGATVKISCKVSGYTFTDYYMHWVQQAPGKGLEWMGLVDPEDGETIYAEKFQGRVTITADTSTDTAYMELSSLRSEDTAVYYCATGGVSVWFREFPASYSGSYLGYWGQGTLVTVSS VL: not shown", "median fluorescence intensity, fold over isotype control": 1.16}, {"binder": "antibody 349 (antibody, V domains shown) VH: EVQLVQSGAEVKKPGATVKISCKVSGYTFTDYYMHWVQQAPGKGLEWMGLVDPEDGETIYAEKFQGRVTITADTSTDTAYMELSSLRSEDTAVYYCATENKVPTIIAAAGTRDYYYYGMDVWGQGTTVTVSS VL: not shown", "median fluorescence intensity, fold over isotype control": 1.12}, {"binder": "antibody 343 (antibody, V domains shown) VH: QVQLVESGGDVVQPGTSLRLSCAASGFTFNNYGFHWVRQAPGKGLEWVALISSDGASTHYADSVKGRFTISRDSSVNTLYLQMNSLSLEDTAVYYCATGHCGTTCYYFDYWGQGTLVSVSS VL: DIQVTQSPSYLSASVGDRVTITCRASQTISTFLQWYQQKVGKAPKLLIYAASTLQSGVPSRFSGSGSGTDFSLTISSLQPEDFATYYCQQSYSAPLSFGGGTKVEIK", "median fluorescence intensity, fold over isotype control": 1.19}, {"binder": "antibody 348 (antibody, V domains shown) VH: QVQLVQSGSELKKPGASVKVSCKASGYTFTSYAMNWVRQAPGQGLEWMGWINTNTGNPTYAQGFTGRFVFSLDTSVSTAYLQISSLKAEDTAVYYCARDHELPNTSSWFGHFEYWGQGTLVTVSS VL: not shown", "median fluorescence intensity, fold over isotype control": 1.16}, {"binder": "antibody 333 (antibody, V domains shown) VH: QVHLVESGGGVVLPGRSLRLSCSASQFIFSNYDMHWVRQSPGMGLEWVAGISSDGSDKYYIDSVRGRFTISRDNAKNTLFLQMNSLTTEDTAVYSCAKGGGKFGQYWGRGTLVTVSS VL: AIQMTQSPSSLSASVGDRVTITCRASQVIRNDLAWFQQKPGEAPNLLVYSASNLQSGVPSRFSGSGSGTDFTLTISSLQPEDFATYYCLQDYSYPYTFGQGTKLDMK", "median fluorescence intensity, fold over isotype control": 1.21}, {"binder": "antibody 337 (antibody, V domains shown) VH: QVQLVESGGGVVQPGRSLRLSCAASGFTFSSYGMHWVRQAPGKGLEWVAIIWYDGSNKYYADSVKGRFTISRDNSKNTLYLQMNSLRAEDTAVYYCAKDTGGYCSGGSCYPESYFDYWGQGTLVTVSS VL: SYVLTQPPSVSVAPGKTARITCGGNNIGSKSVHWYQQKPGQAPVLVIYYDSDRPSGIPERFSGSNSGNTATLTINRVEAGDEADYYCQVWDGSSDHLYVFGTGTKVTVL", "median fluorescence intensity, fold over isotype control": 439}]}]}
